Measured values as given in US20250297255A1 (ARSENAL BIOSCIENCES, published 2025).

B1: TMPRSS4 Ab38 scFv (VH-VL) (scFv)
scFv: QVQLAQSGAEVKKPGASVKVSCKASGYTFTRHYIQWVRQAPGQGLEWMGWINPNSGNTGYAQKFQGRVTMTRDTSTSTVYMELSSLRSEDTAVYYCARGRQWLRGEYFQHWGQGTLVTVSSGGGGSGGGGSGGGGSDIQMTQSPSSLSASVGDRVTITCQASQDISRYLNWYQQKPGKAPKLLIYGASNLLSGVPSRFSGSGSGTDFTLTISSLQPEDFATYYCQQTHTTPYTFGQGTRLEIK
notes: on monoclonal phage in the screen
B2: TMPRSS4 Ab42 scFv (VH-VL) (scFv)
scFv: QVQLVQSGAEVKKPGASVKVSCKASGYSFTSHYMHWVRQAPGQGLEWMGWMNPNSGNTGYAQKFQGRVTMTRDTSTSTVYMELSSLRSEDTAVYYCARLGQQLDYWGQGTLVTVSSGGGGSGGGGSGGGGSDIQMTQSPSSLSASVGDRVTITCRASQSIRNYLNWYQQKPGKAPKLLIYEASRLQSGVPSRFSGSGSGTDFTLTISSLQPEDFATYYCQQSYSAPPTFGPGTKVDIK
notes: as for B1
B3: TMPRSS4 Ab32 scFv (VH-VL) (scFv)
scFv: QVQLVQSGAEVKKPGSSVKVSCKASGGTFSSYAISWVRQAPGQGLEWMGRINPSGGSTSYAQKFQGRVTMTRDTSTSTVYMELSSLRSEDTAVYYCARGRYSSSSWGQGTLVTVSSGGGGSGGGGSGGGGSDIQMTQSPSSLSASVGDRVTITCRASQSISTYLNWYQQKPGKAPKLLIYAASSLQRGVPSRFSGSGSGTDFTLTISSLQPEDFATYYCQQSYTTPLTFGGGTKVEIK
notes: as for B1
B4: TMPRSS4 Ab31 scFv (VH-VL) (scFv)
scFv: QVQLVQSGAEVKKPGSSVKVSCKASGYTFRGSGISWVRQAPGQGLEWMGIIYPADSETRYSPSFQGRVTITADESTSTAYMELSSLRSEDTAVYYCARESSSWDYFDYWGQGTLVTVSSGGGGSGGGGSGGGGSEIVMTQSPATLSVSPGERATLSCRASQSVRSYLAWYQQKPGQAPRLLIYGASTRATGIPARFSGSGSGTEFTLTISSLQSEDFAVYYCQQHGSLPLTFGQGTKVEIK
notes: as for B1
B5: TMPRSS4 Ab34 scFv (VH-VL) (scFv)
scFv: QVQLVQSGAEVKKPGASVKVSCKASGYTFTGYYIHWVRQAPGQGLEWMGWMNPHSGNTGYAQKFQGRVTMTRDTSTSTVYMELSSLRSEDTAVYYCAREGGRYSSGRLGYWGQGTLVTVSSGGGGSGGGGSGGGGSDIQMTQSPSSLSASVGDRVTITCRASQGISSWLAWYQQKPGKAPKLLIYAASTLQTGVPSRFSGSGSGTDFTLTISSLQPEDFATYYCQQSKSIPITFGGGTKVEIK
notes: as for B1
B6: TMPRSS4 Ab39 scFv (VH-VL) (scFv)
scFv: QVQLVQSGAEVKKPGASVKVSCKASGGSFSGYAVSWVRQAPGQGLEWLGVINPSDSWTAFAQKFQGRVTMTRDTSTSTVYMELSSLRSEDTAVYYCAREREDDAFDIWGQGTTVTVSSGGGGSGGGGSGGGGSDIQMTQSPSSLSASVGDRVTITCRASQGIRNWLAWYQQKPGKAPKLLIYRASTLQSGVPSRFSGSGSGTDFTLTISSLQPEDFATYYCQQSYTTPFTFGQGTKLEIK
notes: as for B1
B7: TMPRSS4 Ab35 scFv (VH-VL) (scFv)
scFv: QVQLVQSGAEVKKPGASVKVSCKASGYTFTGYYMHWVRQAPGQGLEWMGKISAHSGETKYAQNVQGRVTMTRDTSTSTVYMELSSLRSEDTAVYYCARANYYGDYVNYYYGMDVWGQGTTVTVSSGGGGSGGGGSGGGGSDIQMTQSPSSLSASVGDRVTITCQASQDISNYLNWYQQKPGKAPKLLIYKASSLESGVPSRFSGSGSGTDFTLTISSLQPEDFATYYCQQTYTIPITFGQGTRLEIK
notes: as for B1
B8: TMPRSS4 Ab4 scFv (VH-VL) (scFv)
scFv: QVQLVQSGAEVKKPGASVKVSCKASGYFFTTYYLHWVRQAPGQGLEWMGVINPNSRLTSYAESFQGRVTMTRDTSTSTVYMELSSLRSEDTAVYYCEREMFPSSYGIDVWGQGTTVTVSSGGGGSGSGGGGSGGGGSDIVMTQSPLSLPVTPGEPASISCRSSQSLLHSNGYNYLDWYLQKPGQSPQLLIYAASTLQSGVPDRFSGSGSGTDFTLKISRVEAEDVGVYYCMQGTHWPPTFGQGTKLEIK
notes: as for B1
B9: TMPRSS4 Ab33 scFv (VH-VL) (scFv)
scFv: QVQLVQSGAEVKKPGASVKVSCKASGYTFSNYYMHWVRQAPGQGLEWVGWMNPKSGNTGYAQKFQGRVTMTRDTSTSTVYMELSSLRSEDTAVYYCARGRTWIQSSLGYWGQGTLVTVSSGGGGSGGGGSGGGGSDIQMTQSPSSLSASVGDRVTITCRASQYISRWLAWYQQKPGKAPKLLIYGSSTLQSGVPSRFSGSGSGTDFTLTISSLQPEDFATYYCQQYYSTPFTFGPGTKLEIK
notes: as for B1
B10: TMPRSS4 Ab41 scFv (VH-VL) (scFv)
scFv: QVQLVQSGAEVKKPGASVKVSCKASGGTFSSYAISWVRQAPGQGLEWMGWMNPNSGDTHYAQKFQGRVTMTRDTSTSTVYMELSSLRSEDTAVYYCAREGSSWYYDAFDIWGQGTLVTVSSGGGGSGGGGSGGGGSDIQMTQSPSSLSASVGDRVTITCRASQSISRWLAWYQQKPGKAPKLLIYAASTLQTGVPSRFSGSGSGTDFTLTISSLQPEDFATYYCLQHSSYPFTFGQGTKVEIK
notes: as for B1
B11: TMPRSS4 Ab43 scFv (VH-VL) (scFv)
scFv: QVQLVQSGAEVKKPGASVKVSCKASGYTFIGYYMHWVRQAPGQGLEWMGRINPNSGETNYAQKFQGRVTMTRDTSTSTVYMELSSLRSEDTAVYYCARVRVRGVIHPGFDPWGQGTLVTVSSGGGGSGGGGSGGGGSDIQMTQSPSSLSASVGDRVTITCQASQDISNYLNWYQQKPGKAPKLLIYAASSLQSGVPSRFSGSGSGTDFTLTISSLQPEDFATYYCQQSYSTPVTFGPGTKVDIK
notes: as for B1
B12: TMPRSS4 Ab28 scFv (VH-VL) (scFv)
scFv: QVQLVQSGAEVKKPGASVKVSCKASGYTFTGYYMHWVRQAPGQGLEWMGWMNPNSGNTGYAQKFQGRVTMTRDTSTSTVYMELSSLRSEDTAVYYCARLRAKGGGFDYWGQGTLVTVSSGGGGSGGGGSGGGGSDIQMTQSPSSLSASVGDRVTITCRASQGIGNYLAWYQQKPGKAPKLLIYAASSLESGVPSRFSGSGSGTDFTLTISSLQPEDFATYYCQQGYRFPPTFGPGTKVDIK
notes: as for B1
B13: TMPRSS4 Ab48 scFv (VH-VL) (scFv)
scFv: QVQLVQSGAEVKKPGASVKVSCKASGYTFTGYYLHWVRQAPGQGLEWMGWISAYNGNTNYAQNLQGRVTMTRDTSTSTVYMELSSLRSEDTAVYYCARHSYSGSYSTLPYYGMDVWGQGTTVTVSSGGGGSGGGGSGGGGSDIQMTQSPSSLSASVGDRVTITCRASQGISNYLAWYQQKPGKAPKLLIYTASTLFPGVPSRFSGSGSGTDFTLTISSLQPEDFATYYCQQSYSIPLTFGGGTKVEIK
notes: as for B1
B14: TMPRSS4 Ab36 scFv (VH-VL) (scFv)
scFv: EVQLLESGGGLVQPGGSLRLSCAASGFTFSSRAMSWVRQAPGKGLEWVSRINYDGSATTYADSVKGRFTISRDNSKNTLYLQMNSLRAEDTAVYYCARGITIFGVFDYWGQGTLVTVSSGGGGSGGGGSGGGGSDIQMTQSPSSLSASVGDRVTITCRASQSISTWLAWYQQKPGKAPKLLIYRASNLQSGVPSRFSGSGSGTDFTLTISSLQPEDFATYYCQQSYSTPLTFGGGTKVEIK
notes: as for B1
B15: TMPRSS4 Ab40 scFv (VH-VL) (scFv)
scFv: QVQLVQSGAEVKKPGASVKVSCKASGGTFSSYAISWVRQAPGQGLEWMGIINPRGGSTNYAQKFQGRVTMTRDTSTSTVYMELSSLRSEDTAVYYCAREGSSWYYDAFDIWGQGTMVTVSSGGGGSGGGGSGGGGSDIQMTQSPSSLSASVGDRVTITCRASQSISSYLNWYQQKPGKAPKLLIYAAYNLQSGVPSRFSGSGSGTDFTLTISSLQPEDFATYYCQQSYSIPFTFGGGTKVEIK
notes: as for B1
B16: TMPRSS4 Ab44 scFv (VH-VL) (scFv)
scFv: QVQLVQSGAEVKKPGASVKVSCKASGYTFRNYYIHWVRQAPGQGLEWMGRINPNSGGTNYAQKFQGRVTMTRDTSTSTVYMELSSLRSEDTAVYYCARARIAVAVSGFGYWGQGTLVTVSSGGGGSGGGGSGGGGSDIQMTQSPSSLSASVGDRVTITCQASQDISNYLNWYQQKPGKAPKLLIYAASSLHSGVPSRFSGSGSGTDFTLTISSLQPEDFATYYCQESSSFPYTFGPGTKVDIK
notes: as for B1
B17: TMPRSS4 Ab37 scFv (VH-VL) (scFv)
scFv: EVQLLESGGGLVQPGGSLRLSCAASGFTFSSYAMHWVRQAPGKGLEWVSYISSSGSTVYYADSVKGRFTISRDNSKNTLYLQMNSLRAEDTAVYYCARVSNVTPRSGFGYWGQGTLVTVSSGGGGSGGGGSGGGGSDIQMTQSPSSLSASVGDRVTITCRASQSISRYLNWYQQKPGKAPKLLIYSASTLQSGVPSRFSGSGSGTDFTLTISSLQPEDFATYYCQQAHSFPPSFGQGTKLEIK
notes: as for B1
B18: TMPRSS4 Ab3 scFv (VH-VL) (scFv)
scFv: QVQLVQSGAEVKKPGSSVKVSCKASGYTFTSYDINWVRQAPGQGLEWMGGIIPIFGTTKFAQKFQGRVTITADESTSTAYMELSSLRSEDTAVYYCARDWYSSSWYNGDRGDWFDPWGQGTLVTVSSGGGGSGGGGSGGGGSDIVMTQSPLSLPVTPGEPASISCRSSGSLLHSNGYNYLDWYLQKPGQSPQLLIYAASSLQSGVPDRFSGSGSGTDFTLKISRVEAEDVGVYYCMQGTHWPGTFGQGTKVEIK
notes: as for B1
B19: TMPRSS4 Ab45 scFv (VH-VL) (scFv)
scFv: QVQLVQSGAEVKKPGASVKVSCKASGYTFSRWYMHWVRQAPGQGLEWMGRINPNSGGTNYAQKFQGRVTMTRDTSTSTVYMELSSLRSEDTAVYYCARVGGYGWFDPWGQGTLVTVSSGGGGSGGGGSGGGGSDIQMTQSPSSLSASVGDRVTITCQATQDIRNYLNWYQQKPGKAPKLLIYATSSLQSGVPSRFSGSGSGTDFTLTISSLQPEDFATYYCQQSYSPPYTFGQGTKLEIK
notes: as for B1
B20: TMPRSS4 Ab30 scFv (VH-VL) (scFv)
scFv: QVQLVQSGAEVKKPGASVKVSCKASGYTFTTYYMHWVRQAPGQGLEWMGWMNPNSGNTGYAQKFQGRVTMTRDTSTSTVYMELSSLRSEDTAVYYCARARTWLLSPFDYWGQGTLVTVSSGGGGSGGGGSGGGGSEIVMTQSPATLSVSPGERATLSCRASQSVGRYLAWYQQKPGQAPRLLIYGASTRATGIPARFSGSGSGTEFTLTISSLQSEDFAVYYCQHYDSSPMYTFGQGTKLEIK
notes: as for B1

The binders below were run against T1, Human TMPRSS4 (Transmembrane protease, serine 4), wild type full length (human, UniProt Q9NRS4 1-437) (assay: flow cytometry, monoclonal phage on HEK293T-TMPRSS4 cells;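 further: bound phage detected with a PE-labelled mouse anti-M13 monoclonal antibody, read by flow cytometry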).
T1 construct: Type II membrane protein over-expressed on HEK293T cells (also endogenous on H1975 and LUDLU-1 cells); also called TMPRSS4 WT; HEK293T-TMPRSS4
T1 sequence (Q9NRS4 whole entry): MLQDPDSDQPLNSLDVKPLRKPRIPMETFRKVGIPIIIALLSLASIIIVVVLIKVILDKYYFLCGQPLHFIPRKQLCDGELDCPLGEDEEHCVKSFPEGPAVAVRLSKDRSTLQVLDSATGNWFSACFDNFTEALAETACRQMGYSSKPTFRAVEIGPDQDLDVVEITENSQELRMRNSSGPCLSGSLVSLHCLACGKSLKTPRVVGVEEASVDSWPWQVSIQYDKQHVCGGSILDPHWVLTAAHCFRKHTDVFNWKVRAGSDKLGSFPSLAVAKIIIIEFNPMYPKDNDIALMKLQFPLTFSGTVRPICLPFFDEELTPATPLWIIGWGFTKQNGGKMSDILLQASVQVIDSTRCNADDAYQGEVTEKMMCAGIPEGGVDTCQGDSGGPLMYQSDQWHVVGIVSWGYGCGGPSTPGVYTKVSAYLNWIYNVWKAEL

Binder | binding result
B1 | binds
B2 | binds
B3 | binds
B4 | binds
B5 | binds
B6 | binds
B7 | binds
B8 | binds
B9 | binds
B10 | binds
B11 | binds
B12 | binds
B13 | binds
B14 | binds
B15 | binds
B16 | binds
B17 | binds
B18 | binds
B19 | binds
B20 | binds
